Laboratory results from patent US20050054047A1 (Amgen, published 2005).

Assays:
[1] = target: T1, human TWEAK receptor (human, UniProt Q9NP84 28-129); assay: slide binding on transfected COS cells, I-125 anti-leucine-zipper antibody, autoradiography
T1 construct: Expressed on COS cells from an expression vector; The entry includes the signal peptide
T1 sequence: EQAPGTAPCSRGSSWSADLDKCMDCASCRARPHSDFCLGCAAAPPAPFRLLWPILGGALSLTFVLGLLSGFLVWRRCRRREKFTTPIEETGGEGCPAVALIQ
Protocol: (§1) Slides of COS cells were transfected with expression vectors containing TWEAKR, DR3, or vector without insert (control). After two days the cells were incubated with concentrated supernatants from CV-1 cells transfected with a vector encoding the leucine zipper TWEAK extracellular domain fusion protein. One hour later the cells were washed and probed with an I-125 labeled antibody against the leucine-zipper domain. The slides were washed, fixed, and autoradiography was performed using x-ray film. The TWEAKR transfected cells bound significant amounts of TWEAK. […] This experiment confirmed that the TWEAKR polypeptide identified in part A above, rather than DR3, is the major receptor for TWEAK. After discovery of the functional TWEAK receptor, other investigators also reported that DR3 is not the major receptor for TWEAK (Kaptein et al., FEBS Lett., 485(2-3): 135, 2000. The TWEAK-TWEAKR binding interaction was further characterized by Scatchard analysis.

[2] = target: T2, DR3 (UniProt Q93038 25-417, limits assumed); assay: as above
T2 construct: whole, on cells; also called Apo3; WSL-1
T2 sequence (looked up): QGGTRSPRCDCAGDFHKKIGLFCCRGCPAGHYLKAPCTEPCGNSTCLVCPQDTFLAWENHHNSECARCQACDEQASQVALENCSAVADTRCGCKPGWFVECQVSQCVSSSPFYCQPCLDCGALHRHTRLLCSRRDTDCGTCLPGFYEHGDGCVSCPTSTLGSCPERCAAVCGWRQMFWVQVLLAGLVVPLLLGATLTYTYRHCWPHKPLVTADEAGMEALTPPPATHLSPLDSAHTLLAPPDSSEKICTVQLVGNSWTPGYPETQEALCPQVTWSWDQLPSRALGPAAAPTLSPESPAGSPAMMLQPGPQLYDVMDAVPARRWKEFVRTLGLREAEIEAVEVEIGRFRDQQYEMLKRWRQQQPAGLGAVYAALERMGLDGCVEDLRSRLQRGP
Protocol: as §1

binding result [1]: binds
binding result [2]: no binding
B1: leucine zipper TWEAK extracellular domain fusion protein (ligand)
chain: not shown
notes: Used as concentrated supernatant from transfected CV-1 cells; also called LZ-TWEAK; pDC409-LZ-TWEAK product
